To fix the notation:
B1: NI-205.8F8 (antibody, human IgG1, V domains shown)
VH: EVQLLESGGGLVQPGGSLRLSCAASGYTFSYYAMSWVRQAPGKGLEWVSTIGDSGSTTHYADSVKGRFTISRDNSKSTLYLQMNSLRAEDTAVYYCAKGLGPVAAIGDYWGQGTLVTVSS
VL: QSVLTQPPSASGTPGQRVTISCSGSSSNIGSNNVYWYQQLPGTAPKLLVYRNNQRPSGVPDRVSGSKSGSSASLAISGLRSEDEADYYCAAWDDSLRGYVFGTGTKVTVL
B2: NI-205.68G5 (antibody, human IgG1, V domains shown)
VH: QVQLVESGGGVVQPGRSLRLSCAASGFTFSSYGMHWVRQAPGKGLEWVAIIYYDSSQRYYADSVKGRFTISRDNSKNALYLQMNSLRAEDTALYYCARDLPFHYHRSASFAPSDTWGQGTLVTVSS
VL: EIVLTQSPGTLSLSPGERATLSCRASQAVTNNYLAWYQQKPGQAPRLLVYAASSRATGIPDRFYGSGSGADFTLTISRLEPEDFAVYYCQQYGTSPITFGQGTRLEIK
B3: NI-205.21G1 (antibody, human IgG1, V domains shown)
VH: QVQLVESGGGVVQPGMSLRLSCAASGFSFSSHGMHWVRQTPGKGLEWLAVISYDASNKSYADSVKGRFTISRDNSKKTLYLQMDSLRVEDTALYYCANAFSSSASGGYWGQGTLVTVSS
VL: DVVMTQSPLSLPVTLGQPASISCRSSQSLVHSDGVTYLNWFQQRPGQSPRRLIYKVSNRDSGVPDRFSGSGSGTDFTLEISRVEAEDVGIYYCMQGTHWPPWTFGQGTKVEIK
B4: NI-205.58E11 (antibody, human IgG1, V domains shown)
VH: EVQLLESGGGLVQPGGSLRLSCAASGFTFSSYSMSWVRQAPGKGLEWVATVGYGGTIYYADSVKGRFTISRDNSKNTLYLEMNSLRAEATAVYYCAKANYGGNRFGLDVWGQGTTVTVSS
VL: QSALTQPPSASGSPGQSVTISCTGTSSDVGGYNYVSWYQHQPGKAPKLMIYEVSKRPSGVPDRFSGSKSGNTASLTVSGLQAEDEADYYCSSYAGSNNLGVFGTGTEVTVL
B5: NI-205.14H5 (antibody, human IgG1, V domains shown)
VH: EVQLLESGGGLVQPGGSLRLSCAASGFTFRNYAMAWVRQAPGKGLEWVSAIPARGDKTYYADSVRGRFTISRDISKSALYLQMNSLRVEDTAVYYCAKAHHLYNKNFDYWGQGTLVTVSS
VL: EIVLTQSPGTLSLSPGETVTLSCRASQSVSSSNLAWYQQKPGQAPRLLIYGASSRATGIPDRFSGRGSGTDFTLTISRLEPEDFAVYYCQHYGTFGQGTKVDIK
B6: NI-205.36D5 (antibody, human IgG1, V domains shown)
VH: QVQLVESGGGVVQPGRSLRLSCAASRFTFSSYGMHWVRQAPGKGLEWVALIYYDATQKYYADSVKGRFTISRDNSKNALYLQMTSLRADDTAVYYCARDLPYHYHRSASFAPADTWGQGTLVTVSS
VL: EIVLTQSPGTLSLSPGERATLSCRASQTISNNYLAWYQQKPGQAPRLLVYAASSRATGIPDRFYGSGSGADFTLTISRLEPEDFVVYYCQQYGSSPITFGQGTRLEIK

For the first experiment, the target named is synthetic peptide of residues 390-414 of TDP-43 with phosphorylation at residues 409/410 (human). As to the kind of experiment: direct ELISA, coated antigen. (In an ELISA, binding on a coated surface is turned into a signal by an enzyme label.)
Chain of synthetic peptide of residues 390-414 of TDP-43 with phosphorylation at residues 409/410 (human) (peptide, as listed by the source): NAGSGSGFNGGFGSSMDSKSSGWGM
In general, EC50 refers to the concentration needed to bring the measured effect to its halfway point. Turning to B1, the EC50 was found to be 5.1 nM. Still for that read-out and setting: the result for B2 reads 16.9 nM; that for B3, 49.5 nM. On the same count and under the same terms, the result for B4 reads 6.9 nM; that for B5, 0.9 nM.

The target is the same in a further experiment. Put plainly: direct ELISA, coated antigen; direct ELISA, coated synthetic phospho-409/410 peptide 390-414 (3.3 ug/ml).
Consider B6, for which the EC50 was found to be 4.3 nM.

The record behind these values is US20170152308A1.
